From patent EP4772539A1 (Jiangsu Hengrui Pharmaceuticals Co., Ltd., dated 2026)
Where two headings read alike, the source gives them in different places. Each block holds one binder with its values, some of them ahead of it.

What was measured:
[1] = molecular target: T1, human CTLA4 protein expressed on cells (CHOK1-CTLA4, HEK293-CTLA4) (human, UniProt P16410 36-223); assay: flow cytometry, blocking of CHOK1-CTLA4 cells binding to CHOK1-CD80 cells (competitor: CD80 on cells)
T1 construct: whole, on cells; also called CHOK1-CTLA4 cells; HEK293-CTLA4 single-positive cells
T1 sequence (looked up): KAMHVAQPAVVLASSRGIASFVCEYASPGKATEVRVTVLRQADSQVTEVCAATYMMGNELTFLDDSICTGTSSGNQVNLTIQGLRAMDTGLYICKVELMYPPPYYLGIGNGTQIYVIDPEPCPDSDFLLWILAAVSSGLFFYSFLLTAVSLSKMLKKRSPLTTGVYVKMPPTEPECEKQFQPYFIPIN

[2] = molecular target: T1, human CTLA4 protein expressed on cells …; assay: flow cytometry on CHOK1-CTLA4 cells
[3] = molecular target: T1, human CTLA4 protein expressed on cells …; assay: flow cytometry on CHOK1-CTLA4 cells; remark: listed apart in the source
[4] = molecular target: T2, human TIGIT protein expressed on cells (CHOK1-TIGIT) (human, UniProt Q495A1 22-244); assay: flow cytometry, blocking of CHOK1-TIGIT cells binding to CHOK1-CD155 cells (competitor: CD155 on cells)
T2 construct: whole, on cells; also called CHOK1-TIGIT cells
T2 sequence (looked up): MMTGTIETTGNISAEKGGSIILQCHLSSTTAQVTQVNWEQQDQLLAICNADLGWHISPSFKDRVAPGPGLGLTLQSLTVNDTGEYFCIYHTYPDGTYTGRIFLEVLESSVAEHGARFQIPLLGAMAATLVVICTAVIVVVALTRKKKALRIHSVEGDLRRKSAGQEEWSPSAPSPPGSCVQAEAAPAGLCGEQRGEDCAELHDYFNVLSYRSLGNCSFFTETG

[5] = molecular target: T3, human TIGIT (Acro Biosystems Cat#TIT-H52H5) (human, UniProt Q495A1 22-141); assay: SPR (Biacore 8K), antibody captured on Protein A chip, antigen as analyte, 1:1 binding
T3 construct: Soluble bought protein; also called TIGIT protein; human TIGIT antigen
T3 sequence (looked up): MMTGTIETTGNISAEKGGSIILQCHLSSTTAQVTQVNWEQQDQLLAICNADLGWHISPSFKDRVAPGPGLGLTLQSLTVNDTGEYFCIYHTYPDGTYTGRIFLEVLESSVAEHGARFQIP

[6] = molecular target: T2, human TIGIT protein expressed on cells …; assay: flow cytometry on CHOK1-TIGIT cells
[7] = molecular target: T3, human TIGIT (Acro Biosystems …); assay: SPR (Biacore 8K), antigen captured by anti-His antibody on CM5 chip, antibody as analyte, 1:1 binding

IC50 [1]: 0.49 nM | EC50 [2]: 1.27 nM | EC50 [3]: 0.53 nM
B1: Anti-CTLA4 antibody Tre (antibody, V domains shown)
VH: QVQLVESGGGVVQPGRSLRLSCAASGFTFSSYGMHWVRQAPGKGLEWVAVIWYDGSNKYYADSVKGRFTISRDNSKNTLYLQMNSLRAEDTAVYYCARDPRGATLYYYYYGMDVWGQGTTVTVSS
VL: DIQMTQSPSSLSASVGDRVTITCRASQSINSYLDWYQQKPGKAPKLLIYAASSLQSGVPSRFSGSGSGTDFTLTISSLQPEDFATYYCQQYYSTPFTFGPGTKVEIK

IC50 [4]: 1.44 nM | Kd [5]: 0.0411 nM | koff [5]: 7.13e-05 s⁻¹ | kon [5]: 1.73e+06 M⁻¹ s⁻¹ | EC50 [6]: 0.72 nM | Kd [7]: 0.535 nM | koff [7]: 0.00052 s⁻¹ | kon [7]: 972000 M⁻¹ s⁻¹
B2: anti-CTLA4/TIGIT antibody As-3 (bispecific antibody, human IgG1, kappa)
heavy 1: QVQLVESGGGVVQPGRSLRLSCAASGFTFSSYTMHWVRQAPGKGLEWVTFISYDGNNKYYADSVKGRFTISRDNSKNTLYLQMNSLRAEDTAIYYCARTGWLGPFDYWGQGTLVTVSSGGGGSSGAPRFLTRPKASVVSVGKDATLSCQIVGNPFPQVSWEKDKQPVTAGVRFRLAQDGDLYRLKILDLQLSDSGQYVCRARNAHGEAFACLGLQVDAEADKTHTCPPCPAPELLGGPDVFLFPPKPKDTLMISRTPEVTCVVVDVSHEDPEVKFNWYVDGVEVHNAKTKPREEQYNSTYRVVSVLTVLHQDWLNGKEYKCKVSNKALPLPEEKTISKAKGQPREPQVYTLPPCREEMTKNQVSLWCLVKGFYPSDIAVEWESNGQPENNYKTTPPVLDSDGSFFLYSKLTVDKSRWQQGNVFSCSVMHEALHNHYTQKSLSLSPGK
light 1: not shown
heavy 2: EVQLVQSGAEVKKPGASVKVSCKASGYTFTNYWMHWVRQAPGQGLEWMGRIDPDSTGSKYNEKFKTRVTMTRDTSTSTVYMELSSLRSEDTAVYYCAREGAYGYYFDYWGQGTLVTVSSASTKGPSVFPLAPSSKSTSGGTAALGCLVKDYFPEPVTVSWNSGALTSGVHTFPAVLQSSGLYSLSSVVTVPSSSLGTQTYICNVNHKPSNTKVDKKVEPKSCDKTHTCPPCPAPELLGGPDVFLFPPKPKDTLMISRTPEVTCVVVDVSHEDPEVKFNWYVDGVEVHNAKTKPREEQYNSTYRVVSVLTVLHQDWLNGKEYKCKVSNKALPLPEEKTISKAKGQPREPQVCTLPPSREEMTKNQVSLSCAVKGFYPSDIAVEWESNGQPENNYKTTPPVLDSDGSFFLVSKLTVDKSRWQQGNVFSCSVMHEALHNHYTQKSLSLSPGK
light 2: DIQMTQSPSSLSASVGDRVTITCRASENIYSYLAWYQQKPGKSPKLLIYNARTLAEGVPSRFSGSGSGTDFTLTISSLQPEDFATYYCQYHSGSPLPFGGGTKVEIKRTVAAPSVFIFPPSDEQLKSGTASVVCLLNNFYPREAKVQWKVDNALQSGNSQESVTEQDSKDSTYSLSSTLTLSKADYEKHKVYACEVTHQGLSSPVTKSFNRGEC

IC50 [4]: 0.42 nM | IC50 [1]: 1.42 nM | EC50 [6]: 0.43 nM | EC50 [3]: 3.35 nM
B3: anti-CTLA4/TIGIT antibody S-15 (bispecific antibody)
heavy: EVQLVQSGAEVKKPGASVKVSCKASGYTFTNYWMHWVRQAPGQGLEWMGRIDPDSTGSKYNEKFKTRVTMTRDTSTSTVYMELSSLRSEDTAVYYCAREGAYGYYFDYWGQGTLVTVSSASTKGPSVFPLAPSSKSTSGGTAALGCLVKDYFPEPVTVSWNSGALTSGVHTFPAVLQSSGLYSLSSVVTVPSSSLGTQTYICNVNHKPSNTKVDKKVEPKSCDGGGGSGGGGSGGGGSQVQLVESGGGVVQPGRSLRLSCAASGFTFSSYGMHWVRQAPGKGLEWVAVIWYDGSNKYYADSVKGRFTISRDNSKNTLYLQMNSLRAEDTAVYYCARDPRGATLYYYYYGMDVWGQGTTVTVSSGGGGSSGAPRFLTRPKASVVSVGKDATLSCQIVGNPFPQVSWEKDKQPVTAGVRFRLAQDGDLYRLKILDLQLSDSGQYVCRARNAHGEAFACLGLQVDAEADKTHTCPPCPAPELLGGPDVFLFPPKPKDTLMISRTPEVTCVVVDVSHEDPEVKFNWYVDGVEVHNAKTKPREEQYNSTYRVVSVLTVLHQDWLNGKEYKCKVSNKALPLPEEKTISKAKGQPREPQVYTLPPSREEMTKNQVSLTCLVKGFYPSDIAVEWESNGQPENNYKTTPPVLDSDGSFFLYSKLTVDKSRWQQGNVFSCSVMHEALHNHYTQKSLSLSPGK
light 1: B2 light 2
light 2: DIQMTQSPSSLSASVGDRVTITCRASQSINSYLDWYQQKPGKAPKLLIYAASSLQSGVPSRFSGSGSGTDFTLTISSLQPEDFATYYCQQYYSTPFTFGPGTKVEIKGGGGSGIPPKIECLPIDISIDEGKVLTVASAFTGEPTPEVTWSTGGRKIHSQEQGRFHIENTDDSTTLTIKDVQKQDGGLYTLTLRNEFGSDSATVNIHIRSI
notes: Symmetric bispecific antibody with one kind of heavy chain and two kinds of light chain

IC50 [4]: 0.67 nM | EC50 [6]: 0.48 nM
B4: Anti-TIGIT antibody RG6058 (antibody, V domains shown)
VH: EVQLQQSGPGLVKPSQTLSLTCAISGDSVSSNSAAWNWIRQSPSRGLEWLGKTYYRFKWYSDYAVSVKGRITINPDTSKNQFSLQLNSVTPEDTAVFYCTRESTTYDLLAGPFDYWGQGTLVTVSS
VL: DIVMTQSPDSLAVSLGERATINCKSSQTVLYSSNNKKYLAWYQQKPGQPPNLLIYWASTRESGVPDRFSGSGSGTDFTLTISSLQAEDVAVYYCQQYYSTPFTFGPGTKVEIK
